Data on one substance can be found in patent publication US20200270346A1.

What is called Kd is the constant that tells how readily two partners part at equilibrium.

For experiment [1], the target named is human TIGIT-Fc protein (human) (UniProt Q495A1). Briefly: SPR, Biacore T200, antibody captured on anti-mouse IgG, TIGIT-Fc in solution, 1:1 Langmuir fit. A general note: Surface plasmon resonance follows binding to a sensor surface in real time, without labels.
For experiment [2], the target named is human TIGIT expressed on cells (human) (UniProt Q495A1). The experiment is described as follows: cell-based or functional assay.
human TIGIT expressed on cells (human), sequence (Q495A1 25-244): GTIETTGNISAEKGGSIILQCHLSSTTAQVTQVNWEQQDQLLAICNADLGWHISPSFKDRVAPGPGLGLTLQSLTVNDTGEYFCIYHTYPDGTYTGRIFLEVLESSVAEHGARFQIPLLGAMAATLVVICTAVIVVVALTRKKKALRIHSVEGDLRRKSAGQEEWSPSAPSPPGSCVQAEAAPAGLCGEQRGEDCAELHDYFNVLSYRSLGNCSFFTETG
Experiment [3] has as its target Human TIGIT-His (extracellular domain of hTIGIT with a histidine tag) (human) (UniProt Q495A1). The experiment is described as follows: SPR, Biacore T200, antibody captured on anti-mouse IgG, TIGIT-His in solution, 1:1 Langmuir fit.

human TIGIT-Fc protein (human), sequence (Q495A1 25-141): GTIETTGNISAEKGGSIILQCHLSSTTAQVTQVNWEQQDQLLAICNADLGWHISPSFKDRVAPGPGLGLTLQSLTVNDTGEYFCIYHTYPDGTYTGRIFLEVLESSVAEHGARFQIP
Human TIGIT-His (extracellular domain of hTIGIT with a histidine tag) (human), sequence (Q495A1 25-141 limits assumed): as the sequence (Q495A1 25-141) above

For “MBSA43 (commercial mouse anti-human TIGIT antibody, eBioscience Cat #12-9500-42)”, the Kd was 0.0165 nM in experiment [1] and 0.0363 nM in experiment [3]. The substance also had an EC50 of IL-2 rescue in hTIGIT-Jurkat / THP-1 co-culture in experiment [2] of 0.24 µg/mL.
